Results: patent US20040039173A1 (SALK INSTITUTE FOR BIOLOGICAL STUDIES, published 2004)
Blank lines part the entries; values can stand above or below the molecule they belong to. No end group written: not given here.

Experiments:
[1] = molecular target: human CRF receptor, subtype A, variant 1 (hCRF-RA1), encoded by clone hctCRFR (human) (UniProt P34998); assay: binding to the receptor encoded by hctCRFR in COSM6 cell membranes (competitive radioreceptor assay of Example 3)
[2] = molecular target: T1, mouse CRF receptor, subtype B, variant 1 (mCRF-RB1) (mouse, UniProt Q60748 35-411); assay: competitive displacement of 125I-(Nle21,Tyr32)-ovine CRF, membranes of COSM6 cells transfected with pCRF-RB1
T1 construct: Full-length cDNA (431 amino acids) in pcDNA1, transiently expressed in COSM6 cells; also called pCRF-RB1
T1 sequence (Q60748 other isoform, or with tags, fused parts or gaps mutant limits assumed): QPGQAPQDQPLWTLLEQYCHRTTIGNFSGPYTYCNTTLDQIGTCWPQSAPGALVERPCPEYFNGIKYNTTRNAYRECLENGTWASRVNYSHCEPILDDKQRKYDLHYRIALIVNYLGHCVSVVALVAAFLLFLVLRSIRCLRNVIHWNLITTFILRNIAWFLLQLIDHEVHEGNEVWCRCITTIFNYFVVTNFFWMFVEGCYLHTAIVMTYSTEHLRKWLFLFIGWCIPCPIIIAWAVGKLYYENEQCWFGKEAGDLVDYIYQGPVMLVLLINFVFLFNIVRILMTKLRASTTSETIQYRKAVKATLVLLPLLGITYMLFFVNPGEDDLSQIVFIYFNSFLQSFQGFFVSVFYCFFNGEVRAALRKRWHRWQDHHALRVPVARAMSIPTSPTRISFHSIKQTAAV
Description: (§1) The reaction was terminated by filtration through GF/C (Whatman) filters, prewetted with 1% BSA, 10 mM HEPES, pH 7.5. The filters were washed 4 times with 1 ml 0.1% BSA, 50 mM Tris, pH 7.5.
(§2) Using the methods described in Example 3, a radioreceptor assay was conducted. Approximately […] of pCRF-RB₁ plasmid DNA was transfected into COSM6 cells using the DEAE dextran method. […] In order to calculate a Kd, the displacement data were analyzed using the Ligand program of Munson and Rodbard (1980), Anal. Biochem., 107:220-239.

[3] = molecular target: T1, mouse CRF receptor, subtype B, variant …; assay: competitive displacement of 125I-(Nle21,Tyr32)-ovine CRF, membranes of COSM6 cells transfected with pCRF-RB1, Ligand program, six experiments
Description: as §1, §2

[4] = molecular target: T2, human CRF receptor, subtype A, variant 1 (hCRF-RA1), encoded by clone hctCRFR (human, UniProt P34998 24-415); assay: pharmacologic specificity of the receptor of SEQ ID NO:2
T2 construct: Transiently expressed in COSM6 cells; Clone hctCRFR (ATCC 75474) and clone CRF-R1 are both said to encode hCRF-RA1; also called CRF-R1; hctCRF receptor
T2 sequence: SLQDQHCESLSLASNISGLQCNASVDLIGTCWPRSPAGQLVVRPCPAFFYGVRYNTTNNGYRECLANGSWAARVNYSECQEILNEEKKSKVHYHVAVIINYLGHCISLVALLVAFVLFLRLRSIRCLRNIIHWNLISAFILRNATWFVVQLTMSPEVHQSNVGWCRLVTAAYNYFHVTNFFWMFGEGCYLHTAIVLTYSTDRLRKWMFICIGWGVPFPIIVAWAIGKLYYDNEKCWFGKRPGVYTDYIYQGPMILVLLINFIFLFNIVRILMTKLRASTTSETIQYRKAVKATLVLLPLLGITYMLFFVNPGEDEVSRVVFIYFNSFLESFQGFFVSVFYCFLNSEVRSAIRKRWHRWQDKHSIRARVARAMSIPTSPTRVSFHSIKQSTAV

Molecule: CRF antagonist a-helical (9-41) CRF (peptide)
Kd [1]: 13 nM

B1: vasoactive intestinal peptide (VIP) (peptide, UniProt P01282 125-152, looked up)
peptide: HSDAVFTDNYTRLRKQMAVKKYLNSILN
notes: also called vasoactive intestinal polypeptide
binding result [2]: no binding

Molecule: QGPPISIDLSLELLRKMIEIEKQEKEKQQAANNRLLLDTI (ligand, UniProt P01144 1-40, looked up) [sauvagine]
binding result [4]: binds

More lines, now with the values ahead:

Kd [3]: ~1.3 nM
B2: rat/human corticotropin-releasing factor (r/h CRF) (ligand, UniProt P06850 154-194, looked up)
peptide: SEEPPISLDLTFHLLREVLEMARAEQLAQQAHSNRKLMEII
notes: mature; The peptide in the assay is the mature 41-residue CRF; also called human/rat CRF; native r/h CRF

binding result [2]: no binding
B3: hGRF(1-40)OH (peptide, UniProt P01286 32-71, looked up)
peptide: YADAIFTNSYRKVLGQLSARKLLQDIMSRQQGESNQERGA-OH
notes: range 1-40; also called growth hormone releasing factor
